According to paper PMC10397247:
One block for each binder: values may come before it.

Experiments:
4H1387-bN = target: T1, 4H1387-bN; assay: two-hybrid library CCNG1;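 note: natural log of median RNA to DNA barcode read ratio; higher means stronger binding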
T1 chain: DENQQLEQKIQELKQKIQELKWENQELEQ

4H1406-bN = target: T2, 4H1406-bN; assay: two-hybrid library CCNG1;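 note: natural log of median RNA to DNA barcode read ratio; higher means stronger binding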
T2 chain: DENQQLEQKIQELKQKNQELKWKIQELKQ

4H3907-bN = target: T3, 4H3907-bN; assay: two-hybrid library CCNG1;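 note: natural log of median RNA to DNA barcode read ratio; higher means stronger binding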
T3 chain: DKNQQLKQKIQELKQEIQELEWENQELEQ

4H1072-bN = target: T4, 4H1072-bN; assay: two-hybrid library CCNG1;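 note: natural log of median RNA to DNA barcode read ratio; higher means stronger binding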
T4 chain: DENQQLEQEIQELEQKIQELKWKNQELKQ

4H2619-bN = target: T5, 4H2619-bN; assay: two-hybrid library CCNG1;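 note: natural log of median RNA to DNA barcode read ratio; higher means stronger binding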
T5 chain: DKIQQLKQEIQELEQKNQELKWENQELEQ

4H1193-bN = target: T6, 4H1193-bN; assay: two-hybrid library CCNG1;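 note: natural log of median RNA to DNA barcode read ratio; higher means stronger binding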
T6 chain: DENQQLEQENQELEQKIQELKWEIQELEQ

4H4038-bN = target: T7, 4H4038-bN; assay: two-hybrid library CCNG1
T7 chain: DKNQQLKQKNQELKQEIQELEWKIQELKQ

4H344-bN = target: T8, 4H344-bN; assay: two-hybrid library CCNG1
T8 chain: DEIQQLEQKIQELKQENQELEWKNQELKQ

4H2568-bN = target: T9, 4H2568-bN; assay: two-hybrid library CCNG1
T9 chain: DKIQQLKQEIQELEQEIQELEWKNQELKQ

4H3601-bN = target: T10, 4H3601-bN; assay: two-hybrid library CCNG1
T10 chain: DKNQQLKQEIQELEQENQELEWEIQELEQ

4H363-bN = target: T11, 4H363-bN; assay: two-hybrid library CCNG1
T11 chain: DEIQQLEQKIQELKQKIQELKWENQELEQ

4H3961-bN = target: T12, 4H3961-bN; assay: two-hybrid library CCNG1
T12 chain: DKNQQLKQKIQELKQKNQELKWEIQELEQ

4H470-bN = target: T13, 4H470-bN; assay: two-hybrid library CCNG1
T13 chain: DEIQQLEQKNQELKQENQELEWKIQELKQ

4H3592-bN = target: T14, 4H3592-bN; assay: two-hybrid library CCNG1
T14 chain: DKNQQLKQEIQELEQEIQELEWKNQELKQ

4H2745-bN = target: T15, 4H2745-bN; assay: two-hybrid library CCNG1
T15 chain: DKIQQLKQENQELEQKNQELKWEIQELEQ

P8A-bH = target: T16, P8A-bH; assay: two-hybrid library CCNG1
T16 chain: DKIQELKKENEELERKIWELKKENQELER

P11A-bH = target: T17, P11A-bH; assay: two-hybrid library CCNG1
T17 chain: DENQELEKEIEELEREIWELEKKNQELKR

P12A-bH = target: T18, P12A-bH; assay: two-hybrid library CCNG1
T18 chain: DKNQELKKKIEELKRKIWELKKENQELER

P1A-bH = target: T19, P1A-bH; assay: two-hybrid library CCNG1
T19 chain: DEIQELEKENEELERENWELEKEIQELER

P3A-bH = target: T20, P3A-bH; assay: two-hybrid library CCNG1
T20 chain: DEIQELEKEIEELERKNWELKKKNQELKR

P5A-bH = target: T21, P5A-bH; assay: two-hybrid library CCNG1
T21 chain: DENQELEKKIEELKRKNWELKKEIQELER

P4A-bH = target: T22, P4A-bH; assay: two-hybrid library CCNG1
T22 chain: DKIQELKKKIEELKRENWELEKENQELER

P2A-bH = target: T23, P2A-bH; assay: two-hybrid library CCNG1
T23 chain: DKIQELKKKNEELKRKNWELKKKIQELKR

P6A-bH = target: T24, P6A-bH; assay: two-hybrid library CCNG1
T24 chain: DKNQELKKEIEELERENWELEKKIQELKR

P7A-bH = target: T25, P7A-bH; assay: two-hybrid library CCNG1
T25 chain: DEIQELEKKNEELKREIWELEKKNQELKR

P6SC2 [1] = target: T26, P6SC2; assay: two-hybrid library CCmax; details: mean of both orientations
T26 chain: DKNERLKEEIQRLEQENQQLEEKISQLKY

P6SC1 [2] = target: T27, P6SC1; assay: two-hybrid library CCmax; details: mean of both orientations
T27 chain: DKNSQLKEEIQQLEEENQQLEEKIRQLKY

P6SC2 [3] = target: T26, P6SC2; assay: two-hybrid library CCNG1
P6SC1 [4] = target: T27, P6SC1; assay: two-hybrid library CCNG1
P11bHq = target: T28, P11bHq; assay: two-hybrid library CCNG1
T28 chain: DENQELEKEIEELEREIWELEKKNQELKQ

P9bHq = target: T29, P9bHq; assay: two-hybrid library CCNG1
T29 chain: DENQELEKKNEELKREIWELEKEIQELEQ

P4bHq = target: T30, P4bHq; assay: two-hybrid library CCNG1
T30 chain: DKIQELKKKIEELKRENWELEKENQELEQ

P7bHq = target: T31, P7bHq; assay: two-hybrid library CCNG1
T31 chain: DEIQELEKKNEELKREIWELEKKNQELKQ

P12bHq = target: T32, P12bHq; assay: two-hybrid library CCNG1
T32 chain: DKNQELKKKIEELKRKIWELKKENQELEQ

P8bHq = target: T33, P8bHq; assay: two-hybrid library CCNG1
T33 chain: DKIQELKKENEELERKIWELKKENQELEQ

P3bHq = target: T34, P3bHq; assay: two-hybrid library CCNG1
T34 chain: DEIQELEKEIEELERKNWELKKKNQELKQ

P1bHq = target: T35, P1bHq; assay: two-hybrid library CCNG1
T35 chain: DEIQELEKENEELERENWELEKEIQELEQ

P6bHq = target: T36, P6bHq; assay: two-hybrid library CCNG1
T36 chain: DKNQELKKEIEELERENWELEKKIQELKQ

P5bHq = target: T37, P5bHq; assay: two-hybrid library CCNG1
T37 chain: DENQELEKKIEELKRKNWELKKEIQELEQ

P2bHq = target: T38, P2bHq; assay: two-hybrid library CCNG1
T38 chain: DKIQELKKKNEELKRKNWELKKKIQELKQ

P9A-bH = target: T39, P9A-bH; assay: two-hybrid library CCNG1
T39 chain: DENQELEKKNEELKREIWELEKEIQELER

O9 = target: T40, O9; assay: two-hybrid library CCNG1
T40 chain: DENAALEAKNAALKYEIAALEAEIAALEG

O6 = target: T41, O6; assay: two-hybrid library CCNG1
T41 chain: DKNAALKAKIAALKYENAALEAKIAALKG

O2 = target: T42, O2; assay: two-hybrid library CCNG1
T42 chain: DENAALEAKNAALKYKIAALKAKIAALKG

O7 = target: T43, O7; assay: two-hybrid library CCNG1
T43 chain: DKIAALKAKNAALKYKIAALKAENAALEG

O14 = target: T44, O14; assay: two-hybrid library CCNG1
T44 chain: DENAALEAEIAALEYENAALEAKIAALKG

O4 = target: T45, O4; assay: two-hybrid library CCNG1
T45 chain: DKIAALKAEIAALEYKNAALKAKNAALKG

O16 = target: T46, O16; assay: two-hybrid library CCNG1
T46 chain: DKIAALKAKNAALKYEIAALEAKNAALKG

O3 = target: T47, O3; assay: two-hybrid library CCNG1
T47 chain: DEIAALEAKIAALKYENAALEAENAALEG

O11 = target: T48, O11; assay: two-hybrid library CCNG1
T48 chain: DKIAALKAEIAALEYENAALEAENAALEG

O15 = target: T49, O15; assay: two-hybrid library CCNG1
T49 chain: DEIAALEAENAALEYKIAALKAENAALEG

O10 = target: T50, O10; assay: two-hybrid library CCNG1
T50 chain: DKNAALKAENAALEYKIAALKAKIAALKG

O5 = target: T51, O5; assay: two-hybrid library CCNG1
T51 chain: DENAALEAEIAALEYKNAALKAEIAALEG

O13 = target: T52, O13; assay: two-hybrid library CCNG1
T52 chain: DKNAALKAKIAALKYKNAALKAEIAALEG

O12 = target: T53, O12; assay: two-hybrid library CCNG1
T53 chain: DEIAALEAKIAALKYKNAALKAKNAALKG

O8 = target: T54, O8; assay: two-hybrid library CCNG1
T54 chain: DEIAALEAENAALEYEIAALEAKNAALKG

B2: P10A-bH (peptide)
chain: DKNQELKKENEELERKIWELKKKIQELKR
interaction score (P8A-bH): -0.68 | interaction score (P11A-bH): -0.118 | interaction score (P12A-bH): 1.15 | interaction score (P1A-bH): 1.06 | interaction score (P3A-bH): 0.247 | interaction score (P5A-bH): -0.49 | interaction score (P4A-bH): 0.192 | interaction score (P2A-bH): -0.586 | interaction score (P6A-bH): 0.998 | interaction score (P7A-bH): 0.686

B3: P5SC2 (peptide)
chain: DENARLEEKIRQLKQKNSQLKEEIQQLEY
interaction score (P6SC2 [1]): 0.811 | interaction score (P6SC1 [2]): 0.953 | interaction score (P6SC2 [3]): 0.391 | interaction score (P6SC1 [4]): 0.383

B4: P11bHq (peptide)
chain: DENQELEKEIEELEREIWELEKKNQELKQ
interaction score (P11bHq): 1.25 | interaction score (P9bHq): 0.854 | interaction score (P4bHq): 1.65 | interaction score (P7bHq): -1.22 | interaction score (P12bHq): 1.78 | interaction score (P8bHq): 0.862 | interaction score (P3bHq): 1.18 | interaction score (P1bHq): 0.41 | interaction score (P6bHq): 0.74 | interaction score (P5bHq): 0.352 | interaction score (P2bHq): 0.67

Next, values leading:

interaction score (4H1387-bN): 0.922 | interaction score (4H1406-bN): -0.693 | interaction score (4H3907-bN): 1.91 | interaction score (4H1072-bN): 0.692 | interaction score (4H2619-bN): 0.775 | interaction score (4H1193-bN): -0.235 | interaction score (4H4038-bN): 0.389 | interaction score (4H344-bN): -0.983 | interaction score (4H2568-bN): -0.182 | interaction score (4H3601-bN): -0.0449 | interaction score (4H363-bN): 1.58 | interaction score (4H3961-bN): 0.231 | interaction score (4H470-bN): 0.0488 | interaction score (4H3592-bN): 0.235 | interaction score (4H2745-bN): -0.0701
B1: 4H1072-bN (peptide)
chain: DENQQLEQEIQELEQKIQELKWKNQELKQ

interaction score (P8A-bH): 0.165 | interaction score (P11A-bH): -2.55 | interaction score (P12A-bH): 1.5 | interaction score (P1A-bH): 1.5 | interaction score (P3A-bH): 0.615 | interaction score (P9A-bH): 1.09 | interaction score (P5A-bH): 0.555 | interaction score (P4A-bH): 1.83 | interaction score (P2A-bH): 0.45 | interaction score (P6A-bH): 0.692 | interaction score (P7A-bH): 0.921
B5: P11A-bH (peptide)
chain: DENQELEKEIEELEREIWELEKKNQELKR

interaction score (O9): 2.21 | interaction score (O6): -2.48 | interaction score (O2): -0.272 | interaction score (O7): -2.17 | interaction score (O14): -2.41 | interaction score (O4): -1.67 | interaction score (O16): -1.79 | interaction score (O3): -1.83 | interaction score (O11): -1.61 | interaction score (O15): -1.1 | interaction score (O10): -2.12 | interaction score (O5): -0.483 | interaction score (O13): -1.79 | interaction score (O12): -2.06 | interaction score (O8): -1.57
B6: O10 (peptide)
chain: DKNAALKAENAALEYKIAALKAKIAALKG

interaction score (P6SC2 [1]): 0.454 | interaction score (P6SC1 [2]): 1.63 | interaction score (P6SC2 [3]): -0.371 | interaction score (P6SC1 [4]): 0.785
B7: P5SC1 (peptide)
chain: DENSQLEEKISQLKQKNSRLKEEIARLEY
